B1: Lysine-specific demethylase 2B, residues 656 to 722; numbered along this chain, Q8NHM5 (parent)
chain: LPHTAVCLVCGEAGKEDTVEEEEGKFNLMLMECSICNEIIHPGCLKIKESEGVVNDELPNCWECPKC

Variants of: B1
Experiment: abundance fitness (aPCA) (normalised: wild type 0, dead -1); higher = more abundant; growth selection in yeast, the domain comes from the species named
Details: Homo sapiens

Abundance fitness, by site and new letter:
D56: A 0.001; Q -0.049; S 0.07; E -0.075; C -0.233; G 0.079; P 0.099; T 0.069; M 0.123; Y 0.063; L -0.114; V -0.102; W -0.401; K 0.179; R 0.123; I -0.685; F 0.023; H 0.692; N -0.017
I47: W -0.09; H -0.242; V 0.006; G 0.011; Q -0.167; S -0.002; A -0.014; R -0.207; K -0.17; N -0.307; Y -0.007; F -0.047; C -0.168; T 0.08; D -0.261; E 0.038; L -0.133; M 0.16
E63: G -0.252; L -0.074; Q -0.148; M -0.006; P -0.968; K 0.146; N -0.246; F -0.407; C -0.073; A 0.017
K48: P -0.159; N 0.222; Y 0.011; W -0.119; S -0.155; Q 0.108; M 0.157; G -0.056; C -0.179; F -0.078; R -0.168; V -0.261; E 0.152
E57: T -0.007; F -0.107; C 0.036; S 0.102; Q -0.118; V -0.168; M -0.079; W -0.305; I -0.196; Y -0.179; L -0.042; P -0.296; G -0.065; A 0.053; R -0.055; D 0.103; H 0.001
C44: G -0.764; L -0.956; A -0.779; T -0.982; Q -0.79; P -0.722; S -0.843; V -0.906; W -0.8; Y -0.897; M -0.735; N -0.815; R -0.709
P42: R -0.134; Q -0.189; L -0.317; M -0.52; Y 0.122; W -0.32; V -0.423; T -0.568
G43: W -0.52; H -0.433; N -0.195; R -0.173; L -0.536; Y -0.02; P -0.526; C -0.395; F -0.558; Q -0.383; A 0.085; T -0.375; K -0.219; V -0.302; D -0.064; S -0.364; M 0.113
L45: V -0.092; I -0.434; S 0.081; T -0.085; K -0.402; F -0.286; A -0.224; M 0.032; R -0.002; D -0.483; G -0.114; Q 0.069; P -0.515; W -0.493; H -0.188; E -0.547
E51: G -0.197; Y -0.172; K -0.027; C 0.056; V -0.124; A -0.044; W -0.14; R -0.001; S -0.131; L -0.385; Q -0.239; T 0.072; H 0.097; M -0.19; P -0.328
L58: C 0.066; Q -0.107; H 0.194; E 0.011; V -0.036; W -0.149; G -0.171; S 0.051; T 0.206; A -0.454; K 0.14; P -0.408; R 0.076
N55: Q -0.189; H 0.049; K -0.591; V -0.236; D -0.031; R -0.015; S 0.087; C -0.202; T -0.101; P -0.227; M -0.203; W -0.389; G -0.022; E -0.165; L -0.188; Y -0.386; A -0.089
G52: V 0.018; A 0.224; W -0.365; P 0.171; I -0.525; R 0.067; D -0.121; N -0.09; E -0.016; H -0.086; L -0.142; T -0.122; K -0.164; C -0.051; S -0.146; F -0.028; Q -0.094
C61: L -0.04; R 0.042; M -0.12; T 0.248; Y 0.073; F -0.325; I -0.349; H 0.309; D -0.475; S 0.018; Q -0.08; G -0.192; N -0.675; A 0.053; P -0.054; E -0.105; K 0.005; W -0.171
P59: G -0.076; R 0.015; S -0.071; T -0.012; V 0.007; E 0.249; A -0.117; N 0.214; F -0.261; K 0.076; W -0.319; M -0.183; D -0.424; Q -0.024; C -0.076
W62: N -0.541; Y -0.296; K -0.339; P -0.17; S -0.551; T -0.426; L -0.391; I -1; F -0.014; R -0.574; A -0.509; E -0.439; H -0.838; Q -0.601; V -0.465; G -0.789; M -0.425; C -0.858
S50: Y 0.312; H -0.208; M -0.155; D 0.085; F 0.039; I -0.036; W -0.156; V 0.039; E 0.034; P 0.087; K -0.025; C 0.078; Q -0.111; G 0.169; R -0.128
K46: Y 0.042; Q 0.195; A -0.01; P 0.077; R 0.016; E 0.206; L 0.007; I -0.311; S 0.206; D 0.224; G 0.205; V -0.058; T 0.211; W -0.148; H -0.532
E49: S -0.061; G 0.008; I -0.244; Q -0.079; D -0.198; Y -0.187; W -0.235; A 0.104; M -0.005; N 0.262; C -0.039; L -0.077; R -0.103; P 0.024; K -0.123; T 0.045
V53: L -0.119; F -0.343; P -0.15; E 0.003; I -0.07; Q 0.164; A 0.047; M -0.045; N -0.136; K -0.167; G -0.078; T 0.078; H -0.346; R -0.148; S 0.006; C -0.027
N60: C -0.368; M -0.234; H -0.127; F 0.153; I -0.186; W -0.176; L -0.3; P -0.128; K -0.176; E -0.211; T -0.091; G -0.062; Q -0.155; R -0.044; S -0.166
V54: D -0.119; K -0.125; I 0.126; T 0.126; C -0.275; S -0.284; G -0.182; Q 0.135; W -0.124; P -0.065; A 0.089; R 0.042; E 0.024

— the Human Domainome abundance scans (Beltran et al. 2025)
